Measurements as given in paper PMC7863765 (Journal of Molecular Biology, 2021).

B1: full-length human 14-3-3ε (as used in the SEC titration) (natural protein, UniProt P62258 1-255, looked up)
chain: MDDREDLVYQAKLAEQAERYDEMVESMKKVAGMDVELTVEERNLLSVAYKNVIGARRASWRIISSIEQKEENKGGEDKLKMIREYRQMVETELKLICCDILDVLDKHLIPAANTGESKVFYYKMKGDYHRYLAEFATGNDRKEAAENSLVAYKAASDIAMTELPPTHPIRLGLALNFSVFYYEILNSPDRACRLAKAAFDDAIAELDTLSEESYKDSTLIMQLLRDNLTLWTSDMQGDGEEQNKEALQDVEDENQ
notes: human 14-3-3 protein epsilon, full length; Same construct as m21 (TEV-cleavable His6-tag)
B2: untagged full-length human 14-3-3ζ (natural protein, UniProt P63104 1-245, looked up)
chain: MDKNELVQKAKLAEQAERYDDMAACMKSVTEQGAELSNEERNLLSVAYKNVVGARRSSWRVVSSIEQKTEGAEKKQQMAREYREKIETELRDICNDVLSLLEKFLIPNASQAESKVFYLKMKGDYYRYLAEVAAGDDKKGIVDQSQQAYQEAFEISKKEMQPTHPIRLGLALNFSVFYYEILNSPEKACSLAKTAFDEAIAELDTLSEESYKDSTLIMQLLRDNLTLWTSDTQGDEAEAGEGGEN
notes: human 14-3-3 protein zeta, full length, untagged; also called wild-type dimeric 14-3-3ζ

Target: T1, polyphosphorylated full-length SARS-CoV-2 nucleocapsid protein pN.1-419 (SARS-CoV-2, UniProt P0DTC9 1-419)
T1 construct: also called phosphorylated N; polyphosphorylated N; not shown: His6, N-terminal, kept
Experiment: SEC
Details: both partners purified

Row | Binder | Kd | stoichiometry N | binding result
1 | B1 | 10.7 µM | ~1 14-3-3ε chains per pN.1-419 chain (2:2) | 
2 | B2 |  |  | binds
